Substitutions are numbered along the chain they refer to. In names and notes the source's numbering stands. Blank lines part the entries; values can stand above or below the binder they belong to.
Experiments:
[1] = target: T1, human CD22 (hCD22) expressed on the cell surface (human, UniProt P20273 20-847); test: cell ELISA on BHK cells expressing human CD22, COS-7 supernatant, OD 655 nm
T1 construct: whole, on cells; One molecule is used for all cell-surface formats; also called human CD22 antigen; BHK-CD22

[2] = target: T1, human CD22 (hCD22) expressed on the …; test: cell ELISA on BHK cells expressing human CD22, RHOv2 heavy chain expressed with the RKC light chain in COS cells
[3] = target: T1, human CD22 (hCD22) expressed on the …; test: cell ELISA on BHK cells expressing human CD22, COS-7 supernatant, OD 655 nm; remark: listed apart in the source
[4] = target: T1, human CD22 (hCD22) expressed on the …; test: cell ELISA on BHK cells expressing human CD22, RHOv2A heavy chain expressed with the RKC light chain in COS cells
[5] = target: T1, human CD22 (hCD22) expressed on the …; test: cell ELISA on BHK cells expressing human CD22, RHOv2B heavy chain expressed with the RKC light chain in COS cells
[6] = target: T1, human CD22 (hCD22) expressed on the …; test: cell ELISA on BHK cells expressing human CD22, RHOv2C heavy chain expressed with the RKC light chain in COS cells
[7] = target: T1, human CD22 (hCD22) expressed on the …; test: cell ELISA on BHK cells expressing human CD22, OD 655 nm
[8] = target: hCD22 (ligand immobilised on the BIAcore CM5 sensor chip) (human, UniProt P20273 20-687, limits assumed); test: SPR (BIAcore 3000), hCD22 immobilised on CM5 chip, IgG injected, 1:1 model
Method: Binding affinity of HB22.7 and RHOv2ACD/RKA were determined on a BIAcore 3000 instrument (BIAcore, Inc., Uppsala, Sweden). The ligand, hCD22, was prepared at 50 nM in 10 mM NaOAc, pH4 buffer. It was injected onto an EDC/NHS-activated CM5 sensor chip (BIAcore, Inc. Uppsala, Sweden) using a standard immobilization protocol. Following this, any unreacted active ester moieties were quenched using 1M Et-NH2 (ethanolamine; coupling reagents purchased from BIAcore, Inc.). A total of 535 and 689 RUs hCD22 remained bound to two sensor chip surfaces used in these experiments. Separately, a blank surface was prepared on each sensor chip using the identical protocol (minus protein). The blank surfaces were used as a reference cell in the experiments, and served to correct for both non-specific binding and some housekeeping artifacts.
For the kinetic experiments, HB22.7 and RHOv2ACD/RKA were prepared as two dilution series, starting at 22 nM and 100 nM, then diluted three- and two-fold, respectively, down to final concentrations of 0.03 nM and 0.39 nM in HBS-EP buffer (BIAcore, Inc., consisting of the following: 10 mM HEPES buffer, pH7.4, 150 mM NaCl, 3 mM EDTA, and 0.005% P20). Each concentration of IgG was then injected over both the CD22 and reference cell surfaces, which are connected in series. Between injections, surfaces were regenerated with a 1-minute injection of 3M MgCl2.

[9] = target: T1, human CD22 (hCD22) expressed on the …; test: cell ELISA on BHK cells expressing human CD22, RHOv2D heavy chain expressed with the RKC light chain in COS cells
[10] = target: T1, human CD22 (hCD22) expressed on the …; test: cell ELISA on BHK cells expressing human CD22, OD 655 nm; remark: listed apart in the source
[11] = target: T1, human CD22 (hCD22) expressed on the …; test: as above; remark: listed apart in the source
[12] = target: T1, human CD22 (hCD22) expressed on the …; test: as above; remark: listed apart in the source
[13] = target: T1, human CD22 (hCD22) expressed on the …; test: cell ELISA on BHK cells expressing human CD22, COS-7 supernatant, goat anti-human Ig-HRP, OD 450 nm
Source text: The BHK-CD22 binding assay was used to test the binding activity of the chHB227 antibody in the transiently transformed COS 7 culture supernatants. A goat anti-human Ig-HRP conjugate (Sigma Chemicals) was used to detect binding of chHB22.7 mAb while a goat anti-mouse Ig-HRP conjugate (Southern Biotechnology) was used to detect binding of the parental mouse HB22.7 mAb. The bound HRP conjugates were exposed to the substrate o-phenyldiamine (OPD) and the resulting products detected at 450 nm.

[14] = target: T1, human CD22 (hCD22) expressed on the …; test: cell ELISA on BHK cells expressing human CD22, COS-7 supernatant, OD 655 nm; remark: listed apart in the source

B1: HB227RHB + HB227RKC humanized antibody (antibody, human IgG1, V domains shown)
VH: QVQLQESGPALVKPTQTLTLTCTFSGFSLSDYGVNWIRQPPGKALEWLAIIWGDGRTDYNSALKSRLSISKDTSKNQVVLRMTNVDPVDTATYFCARAPGNRAMEYWGQGTVVTVSS
VL: DIVMTQSPSSLSASVGDRVTITCKASQSVTNDVAWYQQKPGKAPKLLIYYASNRYTGVPDRFSGSGYGTDFTLTISSLQPEDFATYFCQQDYRSPWTFGGGTKVEIKR
notes: Human IgG1 kappa, COS-7 supernatant; also called RHB+RKC
binding result [1]: binds

B2: HB227RHO + HB227RKC humanized antibody (antibody, human IgG1, V domains shown)
VH: QVQLEESGGGVVRPGRSLRLSCAASGFTLSDYGVNWIRQAPGKGLEWVGIIWGDGRTDYNSALKSRLTVSRNNSNNTLSLQMNSLTTEDTAVYYCVRAPGNRAMEYWGQGVLVTVS
VL: B1 VL
notes: Human IgG1 kappa, COS-7 supernatant; also called RHO+RKC
binding result [1]: binds

B3: HB227RHOv2 + HB227RKC humanized antibody (antibody, human IgG1, V domains shown)
VH: B2 VH
VL: B1 VL
notes: Human IgG1 kappa, COS-7 supernatant; Carries all four VH back mutations: F29L, D30S, T49G, F67L; also called RHOv2+RKC
binding result [2]: binds

B5: HB227RHF + HB227RKC humanized antibody (antibody, human IgG1, V domains shown)
VH: B1 VH with F24V, A49G, T73N
VL: B1 VL
notes: Human IgG1 kappa, COS-7 supernatant; also called RHF+RKC; humanized (RHF+RKC) antibody
EC50 (read off the curve) [3]: ~0.2 µg/mL

B6: HB227RHOv2A + HB227RKC humanized antibody (antibody, human IgG1, V domains shown)
VH: B2 VH with L29F
VL: B1 VL
notes: RHOv2 with the F29L back mutation removed; Human IgG1 kappa, COS-7 supernatant; also called HB227v2A
binding result [4]: binds

B7: HB227RHOv2B + HB227RKC humanized antibody (antibody, human IgG1, V domains shown)
VH: B2 VH with S30D
VL: B1 VL
notes: RHOv2 with the D30S back mutation removed; Human IgG1 kappa, COS-7 supernatant; also called HB227v2B
binding result [5]: binds

B8: HB227RHOv2C + HB227RKC humanized antibody (antibody, human IgG1, V domains shown)
VH: B2 VH with G49T
VL: B1 VL
notes: RHOv2 with the T49G back mutation removed; Human IgG1 kappa, COS-7 supernatant; also called HB227v2C
binding result [6]: binds

B9: HB227RHC + HB227RKC humanized antibody (antibody, human IgG1, V domains shown)
VH: B1 VH with A49G, T73N
VL: B1 VL
notes: Human IgG1 kappa, COS-7 supernatant; also called RHC+RKC
binding result [1]: binds

B10: HB227RHOv2ABCD + HB227RKC humanized antibody (antibody, human IgG1, V domains shown)
VH: B2 VH with L29F, S30D, G49T, L67F
VL: B1 VL
notes: No VH back mutations; Human IgG1 kappa, COS-7 supernatant; also called RHOv2ABCD+RKC
binding result [7]: binds

Continued, values first:

EC50 (read off the curve) [1]: ~0.2 µg/mL
B4: chH/RK (antibody, V domains shown)
VH: QVQLKESGPGLVAPSQSLSITCTVSGFSLSDYGVNWVRQIPGKGLEWLGIIWGDGRTDYNSALKSRLNISKDNSKSQVFLKMNSLKADDTARYYCARAPGNRAMEYWGQGTSVTVSS
VL: B1 VL
notes: also called chH+RKC; chimeric HB22.7 heavy chain (chH) + HB227RKC light chain

Kd [8]: 22 nM | koff [8]: 0.00069 s⁻¹ | kon [8]: 32000 M⁻¹ s⁻¹
B11: humanized anti-hCD22 antibody RHOv2ACD/RKA (HB227RHOv2ACD VH + HB227RKA VK) (antibody, human IgG1, V domains shown)
VH: B2 VH with L29F, G49T, L67F
VL: B1 VL with D60S, Y67S, F87Y
notes: Human IgG1 kappa expression vectors; It was labelled with Alexa-fluor in some cell assays; also called RHOvACD/RKA; RHOACD/RKA

binding result [9]: binds
B12: HB227RHOv2D + HB227RKC humanized antibody (antibody, human IgG1, V domains shown)
VH: B2 VH with L67F
VL: B1 VL
notes: RHOv2 with the F67L back mutation removed; Human IgG1 kappa, COS-7 supernatant; also called HB227v2D

binding result [10]: binds
B13: HB227RHOv2ACD + HB227RKC humanized antibody (antibody, human IgG1, V domains shown)
VH: B2 VH with L29F, G49T, L67F
VL: B1 VL
notes: Human IgG1 kappa, COS-7 supernatant; also called RHOv2ACD+RKC

EC50 (read off the curve) [11]: ~0.3 µg/mL | EC50 (read off the curve) [12]: ~0.3 µg/mL | EC50 (read off the curve) [10]: ~0.3 µg/mL | EC50 (read off the curve) [3]: ~0.1 µg/mL | EC50 (read off the curve) [1]: ~0.1 µg/mL | EC50 (read off the curve) [13]: ~0.1 µg/mL
B14: chimeric HB22.7 antibody chHB227 (chH + chL) (antibody, V domains shown)
VH: QVQLKESGPGLVAPSQSLSITCTVSGFSLSDYGVNWVRQIPGKGLEWLGIIWGDGRTDYNSALKSRLNISKDNSKSQVFLKMNSLKADDTARYYCARAPGNRAMEYWGQGTSVTVS
VL: SIVMTQTPKFLLVSAGDRITLTCKASQSVTNDVAWYQQKPGQSPKLLIYYASNRYTGVPDRFTGSGYGTDFTFTISTVQAEDLAVYFCQQDYRSPWTFGGGTKLEI
notes: Tested as COS-7 supernatant; also called CH+CK; fully chimeric antibody

binding result [3]: binds
B15: HB227RHF heavy chain + chimeric HB22.7 light chain (chL) (antibody, human IgG1, V domains shown)
VH: B1 VH with F24V, A49G, T73N
VL: B14 VL
notes: Human IgG1 kappa, COS-7 supernatant; The VH entry may include the leader; also called HB227RHF+chL; RHF+chL

binding result [14]: binds
B16: HB227RHB heavy chain + chimeric HB22.7 light chain (chL) (antibody, human IgG1, V domains shown)
VH: B1 VH
VL: B14 VL
notes: Human IgG1 kappa, COS-7 supernatant; The VH entry may include the leader; also called RHB+chL

From patent US20110182887A1 (AstraZeneca / MedImmune, published 2011)
